# Experimental data taken from patent US20150203579A1 (Regeneron, published 2015).
# Changes are numbered by the printed parent chain. Names and notes keep the numbering of the source.
# T1: recombinant cynomolgus monkey PD-1 expressed with a C-terminal myc-myc-hexahistidine tag (cynomolgus monkey (Macaca fascicularis))
# T1 construct: monomeric; also called MfPD-1-MMH
# T1 chain: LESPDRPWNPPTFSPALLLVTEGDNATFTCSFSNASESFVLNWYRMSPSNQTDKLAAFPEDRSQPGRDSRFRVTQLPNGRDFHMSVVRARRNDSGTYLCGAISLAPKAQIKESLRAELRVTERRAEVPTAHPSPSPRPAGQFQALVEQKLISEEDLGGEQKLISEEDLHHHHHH
# B1: H4xH9037P (antibody, V domains shown)
# VH: EVQLVESGGGLVQPGGSLRLSCAASGFTFDDYAMHWVRQAPGKGLEWVSGIGWSSGSIGYADSVKGRFTISRDNAKNSLYLQMDSLRPEDSALYYCAKAYTFMITLYFDYWGQGTLVTVSS
# VL: not shown
# notes: Human IgG4 Fc with 2 or more amino acid changes (H4xH); also called H4xH9037P2
# B2: H4xH9119P2 (antibody, V domains shown)
# VH: EVQLVESGGGLVQPGRSLRLSCAASGFTFEDYAMHWVRQAPGKGLEWVSGIGWSNVKIGYADSVKGRFTISRDNVRNSLYLQMNSLRTEDTAFYYCVKAYTSMLTLYFDYWGQGTLVTVSS
# VL: not shown
# notes: Human IgG4 Fc with 2 or more amino acid changes (H4xH)
# B3: H4xH9045P (antibody, V domains shown)
# VH: EVQLVESGGGLVQPGRSLRLSCAASGFTFDDYDMHWVRQAPGKGLEWVSGSGWNRGSLGYADSVKGRFTISRDNAKKSLYLQMNSVRVEDTALYYCAKGFVVVSAAYFDYWGQGTLVTVSS
# VL: not shown
# notes: Human IgG4 Fc with 2 or more amino acid changes (H4xH); also called H4xH9045P2
# B4: H4xH9135P2 (antibody, V domains shown)
# VH: EVQLVESGGSVVRPGGSLRLSCVVSGFTFEDYGLSWVRQIPGKGLEWVSGISWTGGNTGYADSVKGRFTISRDNAKNSLYLQMNSLRAEDTALYHCTRDRQWLMQWYFDYWGQGTLVTVSS
# VL: not shown
# notes: as for B2
# B5: H4xH8999P (antibody, V domains shown)
# VH: QLQLQESGPGLVQPSETLSLTCTVSGDSISSTAYHWDWIRQPPGKGLEWIGTITYNGNTYFNPSLKSRVTISVDTSKNQFSLKLLSMTAAETAVFYCARHLGYNSDFFPFDFWGQGTLVTVSS
# VL: not shown
# notes: as for B2
# B6: H4xH9145P2 (antibody, V domains shown)
# VH: QVQLVESGGGVVQPGRSLRLSCSASGFTFSAYAMHWVRQAPGKGLEWVAAISYGGSDKYYADSVKGRFTISRDNSKNTLYLQMNSLRTDDTAVYYCAKSAHWNFFFDYWGQGTLVTVSS
# VL: not shown
# notes: as for B2
# B7: H4xH9008P (antibody, V domains shown)
# VH: EVQLVESGGGLVRPGGSLRLSCAASGFTFSTYAMAWVRQTPGKGLEGVSAIGGSGDSTYYVDSVKGRFTISRDNSKSTLFLQMNSLRAEDTAVYYCVKVRNYDGSFDIWGQGTMVTVSS
# VL: not shown
# notes: as for B2
# B8: H4xH9128P2 (antibody, V domains shown)
# VH: QVQLQESGPGLVKPSETLSLTCTVSGGSISSYHWNWIRQSPGKGLEWIGYIYYIGSTDYNPSLESRVTISVDTSKNQFSLKLSSVTAADTAVYYCARVPVGATGASDVWGQGTMVTVSS
# VL: not shown
# notes: as for B2
# B9: H4H9019P (antibody, human IgG4, V domains shown)
# VH: EVQLVESGGGVVRPGGSLRLSCAASGFTFDDYGMSWVRQVPGKGLEWVSGISWNDGKTVYAESVKGRFIISRDNAKNSLYLEMNSLRAEDTALYYCARDWQYLIERYFDYWGQGTLVTVSS
# VL: not shown
# notes: Fully human; H4H prefix (human IgG4 Fc)
# B10: H4xH9035P (antibody, V domains shown)
# VH: B9 VH with G10R, V40L, S49A, Y80H, E105D, Y110F
# VL: not shown
# notes: Human IgG4 Fc with 2 or more amino acid changes (H4xH); also called H4xH9035P2
# B11: H4xH9120P2 (antibody, V domains shown)
# VH: QVQLVQSGAEVKRPGASVKVSCKASGYTFTSFYMYWVRQAPGQGLEWMGIINPSDGSTSNAQKFQGRVTMTRDTSTSTVYMELSSLRSEDTAVYYCARRVAGDIFDIWGQGTMVTVSS
# VL: not shown
# notes: as for B2
# B12: H4xH9048P2 (antibody, V domains shown)
# VH: QVQLVQSGAEVKRPGSSVKVSCKVSGVTFRNFAIIWVRQAPGQGLEWMGGIIPFFSAANYAQSFQGRVTITPDESTSTAFMELASLRSEDTAVYYCAREGERGHTYGFDYWGQGTLVTVSS
# VL: not shown
# notes: as for B2
# B13: H4xH9034P (antibody, V domains shown)
# VH: EVQLVESGGGVVRPGGSLRLSCTASGFTFDDYGMSWVRQAPGKGLEWISGIGWTGGRSSYADSVRGRFTISRDNAKNSLYLQMNSLGAEDTALYYCARDRQWLVQWYFDYWGQGTLVTVSS
# VL: not shown
# notes: Human IgG4 Fc with 2 or more amino acid changes as disclosed in US20100331527 (H4xH); also called H4xH9034P2
# Target: T2, recombinant human PD-1 expressed with a C-terminal myc-myc-hexahistidine tag (human)
# T2 construct: monomeric; also called hPD-1-MMH; human PD-1-MMH
# Assay: SPR, mAb captured, 37C
Kd [nM],koff [s⁻¹],kon [M⁻¹ s⁻¹],t½ [min],Binder
29.5,0.00668,226000,1.7,B1
43.5,0.0104,240000,1.1,B2
662,0.0532,80400,0.2,B3
26.6,0.0111,418000,1,B4
15.7,,,1.2,B5
94,0.0123,131000,0.9,B6
62.6,,,1.4,B7
42,0.00436,104000,2.6,B8
453,,,2.1,B9
14.3,0.00426,298000,2.7,B10
102,0.00701,68800,1.6,B11
23.2,0.0086,370000,1.3,B12
40.2,0.0112,279000,1,B13

# Target: T3, human PD-1 dimer (human PD-1-mFc or human PD-1-hFc) (human, UniProt Q15116 25-170)
# T3 construct: also called hPD-1-mFc; hPD1-hFc
# T3 sequence (Q15116 25-170 C93S): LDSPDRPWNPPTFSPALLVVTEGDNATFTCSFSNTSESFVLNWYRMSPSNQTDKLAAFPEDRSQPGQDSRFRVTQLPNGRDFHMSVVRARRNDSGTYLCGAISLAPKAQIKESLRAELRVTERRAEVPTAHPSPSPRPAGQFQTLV
# Assay: SPR, mAb captured, 25C
Kd [nM],koff [s⁻¹],kon [M⁻¹ s⁻¹],t½ [min],Binder
0.862,0.000129,150000,89,B1
0.992,0.000162,163000,71,B2
1.75,0.00016,91300,72,B3
0.651,0.000138,212000,84,B4
0.217,,,96,B5
2.4,0.000158,65800,73,B6
0.796,,,412,B7
1.59,0.000133,83700,87,B8
1.97,,,134,B9
0.513,0.000103,201000,112,B10
1.82,0.000119,65200,97,B11
0.798,0.000188,236000,61,B12
0.701,0.000151,215000,77,B13

# Target: T3, human PD-1 dimer (human PD-1-mFc or …)
# Assay: SPR, mAb captured, 37C
Kd [nM],koff [s⁻¹],kon [M⁻¹ s⁻¹],t½ [min],Binder
3.5,0.000921,263000,13,B1
3.8,0.000909,240000,13,B2
5.13,0.0011,214000,11,B3
2.27,0.000702,310000,16,B4
0.596,,,26,B5
3.58,0.000571,160000,20,B6
≤ 0.181,,,≥ 1160,B7
3.68,0.000686,186000,17,B8
2.71,,,59,B9
1.75,0.000554,316000,21,B10
5.96,0.000482,80800,24,B11
3.05,0.0011,361000,10,B12
2.09,0.00063,302000,18,B13

# Target: T1, recombinant cynomolgus monkey PD-1 …
# Assay: SPR, mAb captured, 25C
Kd [nM],koff [s⁻¹],kon [M⁻¹ s⁻¹],t½ [min],Binder
13.1,0.000915,69900,13,B1
22.2,0.00166,75000,6.9,B2
113,0.00705,62500,1.6,B3
10.6,0.00131,124000,8.8,B4
3.09,,,8.7,B5
43.1,0.00124,28600,9.3,B6
23.8,,,4.6,B7
17.7,0.000649,36800,18,B8
42.9,,,,B9
4.64,0.000434,93600,27,B10
34.1,0.00108,31700,11,B11
7,0.000897,128000,13,B12
28,0.00269,96100,4.3,B13

# Target: T1, recombinant cynomolgus monkey PD-1 …
# Assay: SPR, mAb captured, 37C
Kd [nM],koff [s⁻¹],kon [M⁻¹ s⁻¹],t½ [min],Binder
39.7,0.0088,222000,1.3,B1
51.4,0.0123,240000,0.9,B2
7540,0.105,14000,0.1,B3
28.9,0.0134,462000,0.9,B4
9.41,,,1.2,B5
83.7,0.0143,171000,0.8,B6
23.5,,,0.8,B7
46.1,0.00418,90600,2.8,B8
356,,,1.5,B9
14,0.00429,306000,2.7,B10
107,0.00748,69800,1.5,B11
16.8,0.00697,415000,1.7,B12
87.3,0.0247,283000,0.5,B13
